Measured values published in patent publication CN113956355A.

B1: 兔单克隆抗体OTIR5G8 (antibody, V domains shown)
VH: QSLEESGGRLVTPGTPLTLTCTASGFSLISYDMSWVRQAPGKGLEWIGFLGSGSSAYYASWAKGRFTISRTSTTVDLKITSPTTEDTATYFCARGTGWGQGTLVTVSS
VL: AQVLTQTPSSVSAAVGGTVTINCQASQSVYKNNWLSWFQQKPGQPLKRLTYRASTLDSGVPSRFSGSGSGTEFTLTISDVQCDDAATYYCLGSYDCSSADFGGGTEMVVK
B2: 兔单克隆抗体OTIR5D11 (antibody, V domains shown)
VH: QSVEESGGRLVTPGTPLTLTCTVSGFSLSSYAMNWVRQAPGKGLEWIGYIDSSGTIYYASWAKGRFTISKTSTTVDLKITSPTTEDTATYFCARGMNWGQGTLVTVS
VL: AAVLTQTPSPVSAAVGGTVTISCQSSQSVYDNNALAWYQQKPGQPPKRLIYKASTLDSGVPSRFSGSGSGTQFTLTISGVQCDDAATYYCLGEYYDDAEFGGGTEVVVK

Assays:
人脑利钠肽(BNP) (human) [1] = target: 人脑利钠肽(BNP) (human) (UniProt P16860); assay: sandwich ELISA, 5G8 coated, HRP-5D11 detection; 0 pg/ml BNP (blank)
人脑利钠肽(BNP) (human) [2] = target: 人脑利钠肽(BNP) (human) (UniProt P16860); assay: sandwich ELISA, 5G8 coated, HRP-5D11 detection; plasma sample with BNP 108 pg/ml
人脑利钠肽(BNP) (human) [3] = target: 人脑利钠肽(BNP) (human) (UniProt P16860); assay: sandwich ELISA, 5G8 coated, HRP-5D11 detection; plasma sample with BNP 287 pg/ml
人脑利钠肽(BNP) (human) [4] = target: 人脑利钠肽(BNP) (human) (UniProt P16860); assay: sandwich ELISA, 5G8 coated, HRP-5D11 detection; plasma sample with BNP 39.7 pg/ml
人脑利钠肽(BNP) (human) [5] = target: 人脑利钠肽(BNP) (human) (UniProt P16860); assay: sandwich ELISA, 5G8 coated, HRP-5D11 detection; plasma sample with BNP 425.6 pg/ml
人脑利钠肽(BNP) (human) [6] = target: 人脑利钠肽(BNP) (human) (UniProt P16860); assay: sandwich ELISA kit, 5G8 coated at 5 μg/ml, HRP-5D11 detection; 0 pg/ml BNP (blank)
人脑利钠肽(BNP) (human) [7] = target: 人脑利钠肽(BNP) (human) (UniProt P16860); assay: sandwich ELISA, 5G8 coated, HRP-5D11 detection; plasma sample with BNP 1125.7 pg/ml
人脑利钠肽(BNP) (human) [8] = target: 人脑利钠肽(BNP) (human) (UniProt P16860); assay: sandwich ELISA, 5G8 coated, HRP-5D11 detection; plasma sample with BNP 2046.3 pg/ml
人脑利钠肽(BNP) (human) [9] = target: 人脑利钠肽(BNP) (human) (UniProt P16860); assay: sandwich ELISA, 5G8 coated, HRP-5D11 detection; plasma sample with BNP 3287.3 pg/ml
人脑利钠肽(BNP) (human) [10] = target: 人脑利钠肽(BNP) (human) (UniProt P16860); assay: indirect ELISA, serial two-fold dilution of the antibody; coated antigen taken as BNP
人脑利钠肽(BNP) (human) [11] = target: 人脑利钠肽(BNP) (human) (UniProt P16860); assay: indirect ELISA, BNP coated at 2 μg/ml, purified antibody diluted 10^4-fold; mean value
人脑利钠肽(BNP) (human) [12] = target: 人脑利钠肽(BNP) (human) (UniProt P16860); assay: sandwich ELISA kit, 5G8 coated at 5 μg/ml, HRP-5D11 detection; synthetic BNP standard 125 pg/ml
人脑利钠肽(BNP) (human) [13] = target: 人脑利钠肽(BNP) (human) (UniProt P16860); assay: sandwich ELISA kit, 5G8 coated at 5 μg/ml, HRP-5D11 detection; synthetic BNP standard 250 pg/ml
人脑利钠肽(BNP) (human) [14] = target: 人脑利钠肽(BNP) (human) (UniProt P16860); assay: sandwich ELISA kit, 5G8 coated at 5 μg/ml, HRP-5D11 detection; synthetic BNP standard 62.5 pg/ml
人脑利钠肽(BNP) (human) [15] = target: 人脑利钠肽(BNP) (human) (UniProt P16860); assay: sandwich ELISA kit, 5G8 coated at 5 μg/ml, HRP-5D11 detection; synthetic BNP standard 31.25 pg/ml
人脑利钠肽(BNP) (human) [16] = target: 人脑利钠肽(BNP) (human) (UniProt P16860); assay: sandwich ELISA kit, 5G8 coated at 5 μg/ml, HRP-5D11 detection; synthetic BNP standard 15.625 pg/ml
人脑利钠肽(BNP) (human) [17] = target: 人脑利钠肽(BNP) (human) (UniProt P16860); assay: sandwich ELISA kit, 5G8 coated at 5 μg/ml, HRP-5D11 detection; synthetic BNP standard 7.8125 pg/ml
人脑利钠肽(BNP) (human) [18] = target: 人脑利钠肽(BNP) (human) (UniProt P16860); assay: sandwich ELISA kit, 5G8 coated at 5 μg/ml, HRP-5D11 detection; synthetic BNP standard 3.90625 pg/ml

Chain of UniProt P16860 (P16860 103-134): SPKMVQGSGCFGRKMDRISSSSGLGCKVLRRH

OD450nm (人脑利钠肽(BNP) (human) [1]) [OD450nm]	OD450nm (人脑利钠肽(BNP) (human) [2]) [OD450nm]	OD450nm (人脑利钠肽(BNP) (human) [3]) [OD450nm]	OD450nm (人脑利钠肽(BNP) (human) [4]) [OD450nm]	OD450nm (人脑利钠肽(BNP) (human) [5]) [OD450nm]	OD450nm (人脑利钠肽(BNP) (human) [6]) [OD450nm]	OD450nm (人脑利钠肽(BNP) (human) [7]) [OD450nm]	OD450nm (人脑利钠肽(BNP) (human) [8]) [OD450nm]	OD450nm (人脑利钠肽(BNP) (human) [9]) [OD450nm]	效价 (ELISA titer) (人脑利钠肽(BNP) (human) [10])	OD450 (人脑利钠肽(BNP) (human) [11]) [OD450]	OD450nm (人脑利钠肽(BNP) (human) [12]) [OD450nm]	OD450nm (人脑利钠肽(BNP) (human) [13]) [OD450nm]	OD450nm (人脑利钠肽(BNP) (human) [14]) [OD450nm]	OD450nm (人脑利钠肽(BNP) (human) [15]) [OD450nm]	OD450nm (人脑利钠肽(BNP) (human) [16]) [OD450nm]	OD450nm (人脑利钠肽(BNP) (human) [17]) [OD450nm]	OD450nm (人脑利钠肽(BNP) (human) [18]) [OD450nm]	Binder
0.026	0.951	1.37	0.273	1.74	0.01	2.8	3.48	3.6	6.6e+06	2.85	1.11	2	0.529	0.224	0.086	0.033	0.024	B1
									1.3e+07	2.85								B2
